A protein production outcome set (Wang et al. 2014)

Test: label from the status in PepcDB records

Sequence | protein production
MMMLNPSNGGIEGEKMKKKAKVVVIMGPTGSGKSKLAVDLASHFPVEIINADAMQIYSGLDVLTNKVTVDEQKGVPHHLLGTVSSDMEFTARDFRDFTVPLIEEIVSRNHIPVLVGGTHYYIQAVVSKFLLDDAAEDTEECCADVASVVDQDMVVESVFGRDDLSHGYELLKELDPVAANRIHPNNHRKINQYLSLHASRGVLPSKLYQGKTAENWGCINASRFDYCLICMDAETAVLDRYVEQRVDAMVDAGLLDEVYDIYKPGADYTRGLRQSIGVREFEDFLKIHLSETCAGHLTSLSNDDKVMKENLRKILNFPKDDKLRIMLEEAIDRVKLNTRRLLRRQKRRVSRLETVFGWNIHYIDATEYILSKSEESWNAQVVKPASEIIRCFLETETESGRDPTSGKSIERDLWTQYVCEACGNKILRGRHEWEHHKQGRTHRKRTTRHKNSQTYKNREVQEAEVN | failed
MASSTLFKLNSQTFKALNPSPPSLSPPNSRIFHLHFSKSLSQQHSKLNHKSTTTRLFAPLCSSLPSPSSSSPPLSKEEAINQAKTCLLSCLIKPLNNPKLASPKLRKLKQPRFRLEIPILDDDSPSSLSQLAFSIFHDLPISRRGSNVKLLFLWPNPSFIDPAVKAFRSDSIHHIAMSPVSDSLKTALRSADVAIFMAPEKSQLEDVKTASEAFSTKPVVMINPRWLFEEEKSFGDGFIGSFEVIYAFTGLEVRGVFSKRKGVIFKCVRDGVVSGERWNVLVEEEEGNGTLKVVSQFNSRPSIEEVELVLYNLMAMNSPITKSAKFLSDLVSNITGKK | failed
MLSERAAQMVIFSALIKHKNFTVAAKSLGVSVSHVSKQLSQLEESLGIKLVQRTTRSFTPTEAGKTFYHHCEQVVQAVSSATLEMESQRDEVAGLVRLGLSQSFGTLHIIPAIQELRELYPQLQVEVHLFDYKVDMLAEGLDLWVTNNEHLPEGYIAQRLTDCQFVVAASPDYLLKYDTPTEPNDLSLHNCLIYRSWERDYTGWAFTKGQQELNVKVSGNYSVDLAEAVRDAAIAGWGIAYLATYLLGDEFRTGKLIQLLPDWKASQSMPFYAVYPSRQHMPKKISAVINFIKQKIGNPCHWDQRLAPYISIPK | failed
MNVKKNIALPAIMVGTFILEGVISLQFGNGLFNDKHLFIPHFLLVMLTIMTCFYKRNTTLVYAFILGLLFDIYYTGVMGIYFAIFPFTVYITDKFMKVLQNNIFLVGLITVFNIILTESLVYAFYYLIGSTTMTIPVFIDQRLWTTILFNLAFFLVIFFPFRLFLDRLVKSE | failed
MKIMTKALNRTTLGLALGLASSQLLAAGFALNEQSISGMGTGFAGRSSSADDASTVFGNPAGMSRIKREQISVGAAAVIAKTDIDNGRGTFGGSNDGDMVPVVGVPMGYYVKPIDDHWAFGLGVYVPFGLVTDYEKGFAGRYWGDKSHVQIVTFQPTVSYAFNDKVSIGFGPTINRIDGELTSAVPNRASLGTNDGKVKIKGDDTAIGFNAGILVQATDTTRLGLTYHSKVDYKLEGKTKVEGSGFGPFGGQKYDASLDISTPESVDFSITQQLDENWTVYAGSTWTRWSRLKDITVENSGVPTALASSIGTITEEQDWHDTWAHAIGASYKVNKEWTLRTGFSVDQSPTNNVNRSPRIPTGDRKIISFGAGWSPTDDLTIDVAYSYLREDETKIRDSSATKGSYSADYRNTAHGLGTSVTYRF | failed
MWRDTMSAFLGELIGTALLIVLGGGVCAGVSLKKSFAKDSGWIVITMGWGLAVAVAAYAVGSISGAHLNPALTIGLAFKGAFPWSDVPGYIVAQMIGAIIGAVIVYLHYLPHWKETEDPGTKLGVFATGPAIPNTFANLLSEMIGTFVLVFGILAIGANKFADGLNPFIVGFLIVSIGLSLGGTTGYAINPARDLGPRIAHFFLPIAGKGGSNWKYAWIPVVGPILGGSLAGLFHQVVFEGKQNSALIYVIIATVIVLAISYMTSKKSGSNTNSRKVA | failed
MKNVLLLGESGFVGSVVYNSLHCVCKVYTIAPNKKITIDNVFEVANDVFKSIEINNIDVVINCIAMANLDQCENNKLDCELVNTTFVTHIVDYLKDKDIKLVHISSNAVYDGLNAPYSENSLREPINYYGICKSNADYYIESNLNNYAIARPITVYGPRKIEQRDNPVSFIVKKILSGESFDLVDDNIVNMIHVEDLSNAIKKLSLSDLKGVYNLSGDVSECRYDLGIRIAKIMGSDLNKINKVSGSNFKMAAKRPYNTSFDNKKMKSVLNIEPKNIDIAISEILNAKAY | failed
MTNSGIILVASAALFWGLSGGIAGILINDDWNAVLVSFCRGAVGLIFVLMWLVLRPRNSGFTNGKLWLWSIIAGFGVSGNFAFYFFSISESSVAVAATLMYCAPIFVYLISFAIKIERPTLSKCAAILLVMAGVVLLTRVYQIDSSGITPIGVIAGLLSGMSLALFIFGFKYAARQGSPQAVLAIAFSTLTLALGTLIDIEEAGRVVNSADWPLFAILGVLGGGASFILYIIGLRRTLPALASIVATIEPVTAALFGVIILGEVLAYTQVLGMLIILATVTALGVYSSKQ | failed
MSTDILSAIGLTIIFVGLVLVIVGIVSGIIKSSKKERNENQREETKTEYGGVIFIGPIPIVFGSNKDMAKMALIIGVIMVVLIIAFVVLSYVV | failed
MPLLYILAIVVIVIILILLGIIAANYKKSGPQAALIVYGSGLGSKGVNKDSQGNRLKVVRGSGTFVLPIFQNARYLSLQSAAIDIKTEKVLSKDKIPVTVEATAMIKVGSTLQDIATAAEQFLGKRDEQRDAMADQVLRGHLRAIVGTMTVSELIEDRNKFSAEVQGQAGTDLSKMGLSIVSFVINDIRDDQNYIKALGAKEVARVQQEAAIAVANADKETRIQKAAADQDAQKAEALAATQVANAQKEKAISLAHYEQEQSIAAAEAKAQADQAQASADQAYAIQEAISKKETTEAEMQVELIKKQRETDLETQEVLRKAQENEANVVKAAEAAKAAQIAKAEADAREREVRAQAEAAAIEATAKATAKQREVTAMAEATAIEATGKAEAEAIRLKGLAEAEAIDKKAEAMQKMNDAAKLNMALEILPEVVASVSSNLQAVDSINIYGGEGSSKILGMSQESLKQGLDVLGTMGIDVPDLLNNFSSRGNSNETLEKVEKIEE | failed
MKKILVIRNDKIGDFMVCFPAFAMLKQSMPNAEITALVPSYTASLAELCPSIDNVIIDTPNKKDKTEFNRVLQAVKNAQFDAVICFVSDWYNAKLTWKSGIKHRLAPATKVFQFLYNQRLEHHHHHH | failed
MWLLCDCLLCFPLSPEEFLTEILDLLELVFVILVVCEWKPKRFAGEFRLLMEQRVQLRVGTMETISNEGDVDREQVLETFGIENETGKETNGSRSFDVGYSSGDTLETLPKASKVDISPADVLKTLFFILVWYTFSTFLTLYNKTLLGDDLGKFPAPLLMNTIHFSIQAVLSKMITWYWSGRFQPDVTISWRDYFVRVVPTALGTAMDINLSNESLVFISVTFATMVSYFIYYVQICSPNISSSVCFCLQSPSLKLFGIISVISAGVLLTVAKETEFEFWGFVFVMLAAVMSGLKNPFIFMSCVAPVMAIATGLLSLLLDPWSEFRDNKYFDSGAHFARTCFLMLFGGALAFCMVLTEYVLVSVTSAVTVTIAGVVKEAVTIVVAVFYFHDEFTWLKGVGLMIIMVGVSLFNWYKYDKLQKGHKTEEEKQLQAPSQTGKYVILDEMDDQENSP | failed
EKGTTGTGNAALDNIFERKSVRTYLNKGVEKEKIDLMLRAGMSAPSGKDVRPWEFVVVSDRAKLDSMAAALPYAKMLTQARNAIIVCGDSARSFYWYLDCSAAAQNILLAAESMGLGAVWTAAYPYEDRMEVVRKYTHLPENILPLCVIPFGYPATKEQPKQKYDEKKIHYNQY | not failed
MLSIFYWLLAIFLINLGIFIFVLTHERRSMWAGLTLTSTLMFLAFLAIDALIIIEAQFPQQHQIIANLLLLASVGVALFILVFVFLLIIIFLYNGIKILIKEGTKWTNFLSLGTGIAIILLIFAYPVLGRSTSAPWFRFIYLFLSMSIFYIIFIMVMYTLTSWLNLININTKKLNYIVVLGAGLLGKKVTPLLASRINRGIEIYHKNPDSKLIMSGGQGPDEEIPESHAMAAYAEEHGVPKSDIIIEDRSKTTNQNLKFSHQLMKPNSTFCIVTNSYHVYRALVLAKRQGLQCIGYGAKTKWYFTLNAFIREFIAYLVITKKMQCSIIGSLAVINIIFAALYYASTQFFS | failed
MDANEKKEVIKKRFQEIAMSGGTCCSGGGCCGDSSSSDISRAIGYSEADIEAVPDANMGLGCGNPASIAELKPGDIVLDLGSGAGFDCFLAAQKVGNSGKVIGVDMTPEMVEKVQANARKYGYSNVEFRQGDIEALPVEDSSVDVIISNCVINLAPDKEKVFREAFRVLKLGGRLYISDLVLLDELPEDLKNDRDLLAGCVAGAVLKEEYLKLLKRAGFSVEILAEDPDISKSQYKGLPVESLKLKAWVLEHHHHHH | not failed
